Data on 3 molecules can be found in patent publication US20140087995A1 (published 2014).

The target of one experiment is T1, human amylin receptor (human, UniProt P30988 25-474; O60896 24-148, limits assumed).
T1 construct: whole, on cells; Assay used cell membranes of the Amylin 3(a)/CRE-luc BHK cells; the complex is called the human amylin receptor; also called hAmylin-R; hAmylinR
T1 sequence (looked up) 1: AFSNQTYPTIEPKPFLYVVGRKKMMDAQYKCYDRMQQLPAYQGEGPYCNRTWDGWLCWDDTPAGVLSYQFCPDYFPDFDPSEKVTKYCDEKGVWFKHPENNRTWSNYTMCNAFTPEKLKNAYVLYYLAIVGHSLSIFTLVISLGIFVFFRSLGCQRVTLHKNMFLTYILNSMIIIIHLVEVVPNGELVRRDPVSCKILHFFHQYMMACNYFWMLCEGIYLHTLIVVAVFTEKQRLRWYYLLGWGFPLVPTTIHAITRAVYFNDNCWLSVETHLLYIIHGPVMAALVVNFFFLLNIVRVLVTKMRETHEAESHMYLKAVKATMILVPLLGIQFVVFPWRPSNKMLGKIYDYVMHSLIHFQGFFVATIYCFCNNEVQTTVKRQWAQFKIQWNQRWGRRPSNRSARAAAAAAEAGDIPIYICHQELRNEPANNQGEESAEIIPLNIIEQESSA
T1 sequence (looked up) 2: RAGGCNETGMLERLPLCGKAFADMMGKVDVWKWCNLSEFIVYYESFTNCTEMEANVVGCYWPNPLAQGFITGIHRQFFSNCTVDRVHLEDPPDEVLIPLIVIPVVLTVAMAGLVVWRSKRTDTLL
Put plainly: SPA radioligand competition (125I-rat amylin), membranes of BHK cells with human calcitonin receptor + RAMP-3. How it is done:
The binding assay was performed using scintillation proximity assay (SPA) beads (RPNQ0001) from PerkinElmer and cell membranes from the Amylin 3(a)/CRE-luc cells (as described in Assay (II)) were used. Membranes were prepared in the following way; the cells were rinsed with PBS and incubated with Versene for approximately 5 min before harvesting. The cells were flushed with PBS and the cell-suspension was centrifuged for 5 min at 1000 rpm. Cells were homogenized (ultrathurrax) in a buffer containing 20 mM Na-HEPES and 10 mM EDTA (pH 7.4) and centrifuged at 20.000 rpm for 15 min. The resulting pellet was resuspended, homogenized and centrifuged (20.000 rpm, 15 min) in a buffer containing 20 mM Na-HEPES and 0.1 mM EDTA (pH 7.4, buffer 2). The resulting pellet was resuspended in buffer 2 and protein concentration was measured (BCA protein Assay, Pierce). The homogenate was kept cold during the whole procedure. The membranes were kept at −80° C. until use. The assay was performed in a 384 well Optiplate (PerkinElmer) in a total volume of 40 ul. Membranes were mixed with SPA beads. Final concentration of membranes 35 ng/μL final and SPA beads was 0.05 mg/well. Test-compounds were dissolved in DMSO and further diluted in assay buffer (50 mM Hepes, pH 7.4, 1 mM CaCl2, 5 mM MgCl₂, 0.1% OA and 0.02% Tween20). […] The final mixture was incubated with shaking at 400 rpm for 120 min at 25° C. prior to centrifugation (1500 rpm, 10 min). Samples were analyzed on TopCounter™ (Packard). The IC₅₀ was calculated using (one site binding competition analysis) GraphPad Prism5 as a measure of receptor affinity.

Experiment [1] has as its target T2, human calcitonin receptor (human, UniProt P30988 25-474).
T2 construct: whole, on cells; Assay used cell membranes of the transfected BHK cells; also called hCTR; hCT
T2 sequence (looked up): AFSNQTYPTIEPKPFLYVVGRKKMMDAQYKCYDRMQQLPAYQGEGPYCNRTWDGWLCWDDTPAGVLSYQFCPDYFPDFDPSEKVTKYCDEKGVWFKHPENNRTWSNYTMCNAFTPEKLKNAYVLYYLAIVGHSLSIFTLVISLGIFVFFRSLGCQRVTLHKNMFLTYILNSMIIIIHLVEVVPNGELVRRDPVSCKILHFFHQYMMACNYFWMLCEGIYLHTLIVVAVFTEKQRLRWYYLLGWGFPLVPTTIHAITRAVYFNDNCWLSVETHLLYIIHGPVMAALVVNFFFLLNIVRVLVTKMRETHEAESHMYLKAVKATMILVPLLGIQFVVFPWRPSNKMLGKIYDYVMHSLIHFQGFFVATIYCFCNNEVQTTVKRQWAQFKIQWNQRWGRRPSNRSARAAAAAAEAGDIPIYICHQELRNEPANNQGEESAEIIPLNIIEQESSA
Kind of experiment: ratio IC50 hCTR / IC50 hAmylin-R of the two SPA competition assays; reference: human amylin receptor. The method in brief: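 Competition binding by SPA with cell membranes (35 ng/μL) and SPA beads in 50 mM Hepes pH 7.4 with 1 mM CaCl2, 5 mM MgCl2, 0.1% OA and 0.02% Tween20. Incubated 120 min at 25 °C with shaking, then counted.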

In experiment [2] the target is T2, human calcitonin receptor. Put plainly: SPA radioligand competition (125I-calcitonin), membranes of BHK cells with human calcitonin receptor. The method in brief: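 BHK hCTR membranes 35 ng/μL + SPA beads 0.05 mg/well; buffer 50 mM Hepes pH 7.4, 1 mM CaCl2, 5 mM MgCl₂, 0.1% OA, 0.02% Tween20. 120 min, 25° C., shaking. Scintillation count; IC50 by one-site binding competition.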

Numbered stars: 1 amine (or outer) side, 2 acyl side, 3 side chain; on linkers, the order of the positions; unused ones are H or OH. Bridge positions count the residues as written; N and C are the ends. Side chains are listed from the residue outwards. Ends that are not written are not given here. * marks the point of attachment. C20 diacid = O=C(O)CCCCCCCCCCCCCCCCCCC(=O)*; γGlu = O=C(O)[C@H](CCC(=O)[*:2])N[*:1]

B1: N^α1-[2-[2-[2-[[2-[2-[2-[[(4S)-4-carboxy-4-(19-carboxynonadecanoylamino)butanoyl]amino]ethoxy]ethoxy]acetyl]amino]ethoxy]ethoxy]acetyl]-[Arg17,Pro21,Pro27]-h-am … (peptide)
peptide: KCNTATCATQRLANFLRHSSPNFGAIPSSTNVGSNTY
modifications: C20 diacid-gGlu-2xOEG on the alpha amino group of the N-terminal residue (Lys1); disulfide Cys2-Cys7; C-terminal amide
notes: Synthetic analogue; also called compound 24
Consider B1, for which the half-inhibitory concentration (IC50) with human amylin receptor was 1.14 nM; in experiment [2] it was 102 nM. Also, in experiment [1], the “Ratio hCT/hAmylin binding” value was determined as 90.

B2: N^α1 N^α1-[(4S)-4-carboxy-4-[[(4S)-4-carboxy-4-(19-carboxynonadecanoylamino)butanoyl]amino]butanoyl]-[Glu14,Arg17,Pro21,Pro27]-h-amylin (peptide)
peptide: {C20 diacid-γGlu-γGlu}-KCNTATCATQRLAEFLRHSSPNFGAIPSSTNVGSNTY-NH2
modifications: disulfide 2-7
SMILES: CC[C@H](C)[C@H](NC(=O)[C@H](C)NC(=O)CNC(=O)[C@H](Cc1ccccc1)NC(=O)[C@H](CC(N)=O)NC(=O)[C@@H]1CCCN1C(=O)[C@H](CO)NC(=O)[C@H](CO)NC(=O)[C@H](Cc1c[nH]cn1)NC(=O)[C@H](CCCNC(=N)N)NC(=O)[C@H](CC(C)C)NC(=O)[C@H](Cc1ccccc1)NC(=O)[C@H](CCC(=O)O)NC(=O)[C@H](C)NC(=O)[C@H](CC(C)C)NC(=O)[C@H](CCCNC(=N)N)NC(=O)[C@H](CCC(N)=O)NC(=O)[C@@H](NC(=O)[C@H](C)NC(=O)[C@@H]1CSSC[C@H](NC(=O)[C@H](CCCCN)NC(=O)CC[C@H](NC(=O)CC[C@H](NC(=O)CCCCCCCCCCCCCCCCCCC(=O)O)C(=O)O)C(=O)O)C(=O)N[C@@H](CC(N)=O)C(=O)N[C@@H]([C@@H](C)O)C(=O)N[C@@H](C)C(=O)N[C@@H]([C@@H](C)O)C(=O)N1)[C@@H](C)O)C(=O)N1CCC[C@H]1C(=O)N[C@@H](CO)C(=O)N[C@@H](CO)C(=O)N[C@H](C(=O)N[C@@H](CC(N)=O)C(=O)N[C@H](C(=O)NCC(=O)N[C@@H](CO)C(=O)N[C@@H](CC(N)=O)C(=O)N[C@H](C(=O)N[C@@H](Cc1ccc(O)cc1)C(N)=O)[C@@H](C)O)C(C)C)[C@@H](C)O
notes: Synthetic analogue; also called compound 15
Turning to B2, the 50% inhibitory concentration (IC50) with human amylin receptor was found to be 0.597 nM; in experiment [2], 15.5 nM. Further, the “Ratio hCT/hAmylin binding” value in experiment [1] came out at 26.

B3: N^ε1-[(4S)-4-carboxy-4-[[(4S)-4-carboxy-4-(19-carboxynonadecanoylamino)butanoyl]amino]butanoyl]-[Asp14,Arg17,Pro21,Pro27,Asp35]-h-amylin (peptide)
peptide: K([γGlu-γGlu-C20 diacid])CNTATCATQRLADFLRHSSPNFGAIPSSTNVGSDTY-NH2
modifications: disulfide 2-7; N-terminus assumed
SMILES: CC[C@H](C)[C@H](NC(=O)[C@H](C)NC(=O)CNC(=O)[C@H](Cc1ccccc1)NC(=O)[C@H](CC(N)=O)NC(=O)[C@@H]1CCCN1C(=O)[C@H](CO)NC(=O)[C@H](CO)NC(=O)[C@H](Cc1c[nH]cn1)NC(=O)[C@H](CCCNC(=N)N)NC(=O)[C@H](CC(C)C)NC(=O)[C@H](Cc1ccccc1)NC(=O)[C@H](CC(=O)O)NC(=O)[C@H](C)NC(=O)[C@H](CC(C)C)NC(=O)[C@H](CCCNC(=N)N)NC(=O)[C@H](CCC(N)=O)NC(=O)[C@@H](NC(=O)[C@H](C)NC(=O)[C@@H]1CSSC[C@H](NC(=O)[C@@H](N)CCCCNC(=O)CC[C@H](NC(=O)CC[C@H](NC(=O)CCCCCCCCCCCCCCCCCCC(=O)O)C(=O)O)C(=O)O)C(=O)N[C@@H](CC(N)=O)C(=O)N[C@@H]([C@@H](C)O)C(=O)N[C@@H](C)C(=O)N[C@@H]([C@@H](C)O)C(=O)N1)[C@@H](C)O)C(=O)N1CCC[C@H]1C(=O)N[C@@H](CO)C(=O)N[C@@H](CO)C(=O)N[C@H](C(=O)N[C@@H](CC(N)=O)C(=O)N[C@H](C(=O)NCC(=O)N[C@@H](CO)C(=O)N[C@@H](CC(=O)O)C(=O)N[C@H](C(=O)N[C@@H](Cc1ccc(O)cc1)C(N)=O)[C@@H](C)O)C(C)C)[C@@H](C)O
notes: Synthetic analogue; also called compound 2
Consider B3, for which the IC50 in the experiment with human amylin receptor is 0.411 nM; in experiment [2] it was 19.5 nM. Besides, in experiment [1], the “Ratio hCT/hAmylin binding” value was determined as 47.5.
